This is an account of results in paper PMC4970216.

Substrate in the series: C[C@]12CC[C@@H]3c4ccc(O)cc4CC[C@H]3[C@@H]1CC[C@@H]2O[C@@H]1O[C@H](C(=O)O)[C@@H](O)[C@H](O)[C@H]1O
The series can be described thus: cells, lysate or membranes. Type of series: cell-based, Homo sapiens.

B1: Organic anion transporting polypeptide (OATP) 1B1 (Homo sapiens) (protein)
chain: MDQNQHLNKTAEAQPSENKKTRYCNGLKMFLAALSLSFIAKTLGAIIMKSSIIHIERRFEISSSLVGFIDGSFEIGNLLVIVFVSYFGSKLHRPKLIGIGCFIMGIGGVLTALPHFFMGYYRYSKETNINSSENSTSTLSTCLINQILSLNRASPEIVGKGCLKESGSYMWIYVFMGNMLRGIGETPIVPLGLSYIDDFAKEGHSSLYLGILNAIAMIGPIIGFTLGSLFSKMYVDIGYVDLSTIRITPTDSRWVGAWWLNFLVSGLFSIISSIPFFFLPQTPNKPQKERKASLSLHVLETNDEKDQTANLTNQGKNITKNVTGFFQSFKSILTNPLYVMFVLLTLLQVSSYIGAFTYVFKYVEQQYGQPSSKANILLGVITIPIFASGMFLGGYIIKKFKLNTVGIAKFSCFTAVMSLSFYLLYFFILCENKSVAGLTMTYDGNNPVTSHRDVPLSYCNSDCNCDESQWEPVCGNNGITYISPCLAGCKSSSGNKKPIVFYNCSCLEVTGLQNRNYSAHLGECPRDDACTRKFYFFVAIQVLNLFFSALGGTSHVMLIVKIVQPELKSLALGFHSMVIRALGGILAPIYFGALIDTTCIKWSTNNCGTRGSCRTYNSTSFSRVYLGLSSMLRVSSLVLYIILIYAMKKKYQEKDINASENGSVMDEANLESLNKNKHFVPSAGADSETHC
Take B1: the Km – broadly, the substrate concentration at which the rate is half of its maximum – was determined as 7.20 ± 0.57 µM.
